The results in this text go back to patent US20190336544A1.

For test [1], the target named is IgG (coating control in the ELISA binding assays). As to the kind of experiment: ELISA; IgG coated, culture supernatant.
In test [2] the target is T1, mouseCD47, coated on ELISA plates (mouse) (UniProt Q61735).
T1 sequence (looked up): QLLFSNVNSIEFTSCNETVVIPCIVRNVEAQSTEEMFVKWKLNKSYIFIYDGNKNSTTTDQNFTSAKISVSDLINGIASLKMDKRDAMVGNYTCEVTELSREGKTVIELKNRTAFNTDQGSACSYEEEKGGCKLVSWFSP
As to the kind of experiment: ELISA; mCD47 coated, culture supernatant. (An ELISA detects its analyte on a solid surface through an enzyme-linked reagent.)

B1: secreted anti-mCD47 scFv (αmCD47scFv-V5-HIS, SYN3161) (scFv, from a related filing)
scFv: QVKLLQSGAALVKPGASVKMSCQASGYSFTDYWVTWVKQSHGQSLEWIGEIYPSNTVTNFNDNFKGKATLTVDKSTSTAYMELSRLTSEDSAIYYCTRIGNSGYRVGWFIYWGQGTLVTVLSGGGGSGGGGSGGGGSDTVLTQSPALAVSPGERVTISCKASESVSSHMHWYQQKPGQQPKLLIYKASNLASGVPARFSGSGSGTDFTLTIDPVEADDTATYFCQQGWNGPFTFGAGTRLELKRADAAGSGELGGSGKPIPNPLLGLDSTGSGHHHHHH
For the molecule B1, the ELISA signal (quantity not given) was determined as 0.067 in test [1] and 0.527 in test [2].
